According to patent publication US8895526B2, “Identification of RNAI targets and use of RNAI for rational therapy of chemotherapy-resistant leukemia and other cancers” (Cold Spring Harbor Laboratory, priority 2009, dated 2014):

B1: Dsp.6155: shRNA, SEQ ID NO: 114 (nucleic acid)
chain: TGCTGTTGACAGTGAGCGCCAGGAAGTTCTTCGATCAATATAGTGAAGCCACAGATGTATATTGATCGAAGAACTTCCTGTTGCCTACTGCCTCGGA
B2: Cd6.520: shRNA, SEQ ID NO: 102 (nucleic acid)
chain: TGCTGTTGACAGTGAGCGAGAGCCACTTCTGGGAACACAATAGTGAAGCCACAGATGTATTGTGTTCCCAGAAGTGGCTCCTGCCTACTGCCTCGGA
B3: Cpd.1693: shRNA, SEQ ID NO: 109 (nucleic acid)
chain: TGCTGTTGACAGTGAGCGCACCAGGTGAACCAGAATTTAATAGTGAAGCCACAGATGTATTAAATTCTGGTTCACCTGGTTTGCCTACTGCCTCGGA
B4: Fn1.4143: shRNA, SEQ ID NO: 121 (nucleic acid)
chain: TGCTGTTGACAGTGAGCGCCAGTAGGATACTACACAGTTATAGTGAAGCCACAGATGTATAACTGTGTAGTATCCTACTGATGCCTACTGCCTCGGA
B5: Pitpnm1.561: shRNA, SEQ ID NO: 165 (nucleic acid)
chain: TGCTGTTGACAGTGAGCGCCAGGATGCTTATCAAGGAGTATAGTGAAGCCACAGATGTATACTCCTTGATAAGCATCCTGATGCCTACTGCCTCGGA
B6: Slc12a5.3582: shRNA, SEQ ID NO: 179 (nucleic acid)
chain: TGCTGTTGACAGTGAGCGAAACGAGGTCATCGTGAATAAATAGTGAAGCCACAGATGTATTTATTCACGATGACCTCGTTCTGCCTACTGCCTCGGA
B7: Fgd4.821: shRNA, SEQ ID NO: 119 (nucleic acid)
chain: TGCTGTTGACAGTGAGCGAAAGGAGACTAATGAACAGAAATAGTGAAGCCACAGATGTATTTCTGTTCATTAGTCTCCTTCTGCCTACTGCCTCGGA
B8: Cerk.4466: shRNA, SEQ ID NO: 108 (nucleic acid)
chain: TGCTGTTGACAGTGAGCGCCTGGTATATTTGAGAAGACAATAGTGAAGCCACAGATGTATTGTCTTCTCAAATATACCAGATGCCTACTGCCTCGGA
B9: Arf3.1357: shRNA, SEQ ID NO: 91 (nucleic acid)
chain: TGCTGTTGACAGTGAGCGACCCTTCTGTGTTGGTGAGATATAGTGAAGCCACAGATGTATATCTCACCAACACAGAAGGGCTGCCTACTGCCTCGGA
B10: Ap1s2.2744: shRNA, SEQ ID NO: 90 (nucleic acid)
chain: TGCTGTTGACAGTGAGCGACAGGAGCAAGATGAGTTACTATAGTGAAGCCACAGATGTATAGTAACTCATCTTGCTCCTGCTGCCTACTGCCTCGGA
B11: Pctk1.948: shRNA, SEQ ID NO: 161 (nucleic acid)
chain: TGCTGTTGACAGTGAGCGCCCGGGAAGTATCCCTGCTTAATAGTGAAGCCACAGATGTATTAAGCAGGGATACTTCCCGGATGCCTACTGCCTCGGA
B12: Adam23.5211: shRNA, SEQ ID NO: 89 (nucleic acid)
chain: TGCTGTTGACAGTGAGCGCTACGACCACGTCAGTTACAAATAGTGAAGCCACAGATGTATTTGTAACTGACGTGGTCGTATTGCCTACTGCCTCGGA
B13: Fosb.1165: shRNA, SEQ ID NO: 123 (nucleic acid)
chain: TGCTGTTGACAGTGAGCGCCAGGCGGAAACTGATCAGCTTTAGTGAAGCCACAGATGTAAAGCTGATCAGTTTCCGCCTGATGCCTACTGCCTCGGA
B14: Cx3cr1.1223: shRNA, SEQ ID NO: 111 (nucleic acid)
chain: TGCTGTTGACAGTGAGCGACTGCATCTTATGTGCAAGAAATAGTGAAGCCACAGATGTATTTCTTGCACATAAGATGCAGGTGCCTACTGCCTCGGA
B15: Fn3k.298: shRNA, SEQ ID NO: 122 (nucleic acid)
chain: TGCTGTTGACAGTGAGCGAAAGAGCCTTAGCAGTCAGGCATAGTGAAGCCACAGATGTATGCCTGACTGCTAAGGCTCTTCTGCCTACTGCCTCGGA
B16: Pygl.1463: shRNA, SEQ ID NO: 171 (nucleic acid)
chain: TGCTGTTGACAGTGAGCGCACCAGACAAGTTCCAGAATAATAGTGAAGCCACAGATGTATTATTCTGGAACTTGTCTGGTTTGCCTACTGCCTCGGA
B17: Tnfsf12.1204: shRNA, SEQ ID NO: 187 (nucleic acid)
chain: TGCTGTTGACAGTGAGCGCAATGGATATTAAAGAGAATAATAGTGAAGCCACAGATGTATTATTCTCTTTAATATCCATTTTGCCTACTGCCTCGGA
B18: L1cam.5255: shRNA, SEQ ID NO: 137 (nucleic acid)
chain: TGCTGTTGACAGTGAGCGCCAGAATTATAACAGGCAAATATAGTGAAGCCACAGATGTATATTTGCCTGTTATAATTCTGATGCCTACTGCCTCGGA
B19: Thyn1.315: shRNA, SEQ ID NO: 186 (nucleic acid)
chain: TGCTGTTGACAGTGAGCGCAAGCAACTACTGGCTGATGAATAGTGAAGCCACAGATGTATTCATCAGCCAGTAGTTGCTTATGCCTACTGCCTCGGA
B20: Gas1.2159: shRNA, SEQ ID NO: 128 (nucleic acid)
chain: TGCTGTTGACAGTGAGCGACCCGAAATTACAACTGCATTATAGTGAAGCCACAGATGTATAATGCAGTTGTAATTTCGGGGTGCCTACTGCCTCGGA
B21: Gart.2470: shRNA, SEQ ID NO: 126 (nucleic acid)
chain: TGCTGTTGACAGTGAGCGCAAGAATCTGATTGAAACCATATAGTGAAGCCACAGATGTATATGGTTTCAATCAGATTCTTATGCCTACTGCCTCGGA
B22: Cacna1f.3314: shRNA, SEQ ID NO: 99 (nucleic acid)
chain: TGCTGTTGACAGTGAGCGACTGGCCTGCGCTACTATACAATAGTGAAGCCACAGATGTATTGTATAGTAGCGCAGGCCAGCTGCCTACTGCCTCGGA
B23: Mef2c.1872: shRNA, SEQ ID NO: 141 (nucleic acid)
chain: TGCTGTTGACAGTGAGCGCTGCCTCAGTGATACAGTATAATAGTGAAGCCACAGATGTATTATACTGTATCACTGAGGCAATGCCTACTGCCTCGGA
B24: Slc22a4.2223: shRNA, SEQ ID NO: 181 (nucleic acid)
chain: TGCTGTTGACAGTGAGCGCAAACGTATAAATGCTATCCAATAGTGAAGCCACAGATGTATTGGATAGCATTTATACGTTTATGCCTACTGCCTCGGA

How the values were obtained:
[1] = system: tet-on competent MLL/AF9+Nras AML; test: Pooled negative selection RNAi screening (deep sequencing); assay type: cell-based, mouse; conditions: deep sequencing reads, On Dox compared to T0
Text: (§1) In addition to the analysis of single shRNAs for inhibitory effects in vitro and in vivo, the combination of tet-on competent cancer models and tet-regulatable shRNA expression vectors allowing for monitoring shRNA expression through fluorescent and other reporter genes (e.g. TRMPV and derivates) facilitates pooled shRNA negative selection screening (FIG. 37). In such approaches a pool of over 1,000 shRNAs are retrovirally transduced into tet-on competent cancer models (here MLL/AF9+Nras AML) and selected for shRNA containing cells by either drug selection (e.g. G418) or fluorescence-activated cell sorting (FACS). Selected cell populations harboring a library of shRNAs then can be cultured in the absence or presence of doxycyline (off dox and on dox, respectively) or injected into syngeneic recipient mice that are either treated with doxycyline or left untreated.
(§2) The representation of each shRNA within the pool can be effectively assessed by deep sequencing of shRNA cassettes in a given cell population. For this, genomic DNA is extracted from leukemia cells containing the shRNA pool, and the shRNA guide or passenger strand (21-22 target gene specific nucleotides of the shRNA) by PCR using primers specific for common sequences flanking the gene specific part of the shRNA (e.g. miR30 19 nt loop and miR30 common 3′ sequence). The primers also contain 5′-adapters required for deep sequencing (e.g. for Illumina/Solexa sequencing primers are p5+mir3: 5′-[…]-3′ (SEQ ID NO: 215) and p7+Loop: 5′-[…]-3′ (SEQ ID NO: 216)). Deep sequencing is subsequently performed using a primer binding the flanking nucleotide sequence next to the target gene specific part of the shRNA (for Illumina/Solexa platforms the primer is mir30EcoR1Seq: 5′-TAGCCCCTTGAATTCCGA GGCAGTAGGCA-3′ (SEQ ID NO: 217)).
(§3) The use of shRNA vectors that allow for monitoring of shRNA expression through fluorescent and other reporter genes (e.g. TRMPV) in combination with tet-on competent mouse models facilitates the isolation of pure shRNA expressing cell populations (e.g. by FACS, for TRMPV by sorting of Venus/dsRed double positive cells (FIG. 38). This selection of shRNA expressing cells prior to DNA isolation strongly reduces the background caused by cell populations with insufficient shRNA induction, which are predicted to contain genomic representation of the whole shRNA library without shRNA specific shifts in representation. The final readout is based on the comparison of shRNA representation (i.e. deep sequencing read numbers) before the assay (t0) or from cell populations left without doxycycline treatment (off dox) to those where shRNA were induced and cells subsequently sorted for shRNA expressing cells (on dox). shRNA with inhibitory effects are predicted to loose representation (show less reads) on dox compared to t0 and off dox.
(§4) This pooled is RNAi screening strategy can be applied to rapidly survey inhibitory effects of large pools of shRNAs (˜1000 at a time) in different tet-on competent cancer models and normal control cells (FIG. 39). For example, a pool of 1166 shRNAs targeting 836 predominantly druggable genes associated with MLL fusion proteins in human leukemia and mouse models of MLL/AF9-induced AML (MLL cure library) was analyzed in pooled negative selection screening in tet-on competent MLL/AF9+Nras AML and immortalized murine embryonic fibroblasts (Mef) in parallel. To establish and validate this screening approach, the pool also contained 64 control shRNAs each of which have been previously analyzed for inhibitory effects in both AML cells and Mefs using the same experimental system (FIG. 40).
(§5) After pooling of 1166 experimental and 64 control shRNAs the presence of shRNAs was verified by deep sequencing of shRNAs within the plasmid vector pool (FIG. 41). […]

[2] = system: immortalized murine embryonic fibroblasts (Mef); test: as above; assay type: cell-based; conditions: deep sequencing reads, on dox compared to initial representation
Text: as §1, §2, §3, §4, §5

| Molecule | Fold depletion in AML [1] | Fold depletion in Mef [2] |
| --- | --- | --- |
| B1 | 242.96 Fold | 0.60 Fold |
| B2 | 28.66 Fold | 2.28 Fold |
| B3 | 50.07 Fold | 3.91 Fold |
| B4 | 36.54 Fold | 0.84 Fold |
| B5 | 60.72 Fold | 0.27 Fold |
| B6 | 12.58 Fold | 2.21 Fold |
| B7 | 25.66 Fold | 2.12 Fold |
| B8 | 27.79 Fold | 0.61 Fold |
| B9 | 94.96 Fold | 0.86 Fold |
| B10 | 57.84 Fold | 2.31 Fold |
| B11 | 123.76 Fold | 0.27 Fold |
| B12 | 40.11 Fold | 0.30 Fold |
| B13 | 13.12 Fold | 3.61 Fold |
| B14 | 12.98 Fold | 0.69 Fold |
| B15 | 103.54 Fold | 2.82 Fold |
| B16 | 118.65 Fold | 1.94 Fold |
| B17 | 36.03 Fold | 0.93 Fold |
| B18 | 31.42 Fold | 1.26 Fold |
| B19 | 145.53 Fold | 1.04 Fold |
| B20 | 132.34 Fold | 0.81 Fold |
| B21 | 146.15 Fold | 0.67 Fold |
| B22 | 12.52 Fold | 2.14 Fold |
| B23 | 63.15 Fold | 0.77 Fold |
| B24 | 41.21 Fold | 3.41 Fold |
